Assay results: patent US6495376
Read-outs that look alike come from different tables or passages of the source. Values belong to the substance of their own block, whether it stands above or below them.

Columns and labels:
GST-WW-domain of Pin1 = GST-WW-domain of Pin1 (UniProt Q13526)
[1] = target: Pintide analogue WFYpSPFLE; test: fluorescence anisotropy; low affinity site
[2] = target: Pintide analogue WFYpSPFLE; test: fluorescence anisotropy; high affinity site
[3] = target: Cdc25 Peptide EQPLpTPVTDL; test: fluorescence anisotropy, GST-WW-domain titrated on fluorescein-labeled peptide
[4] = target: Pintide analogue WFYpSPFLE; test: as above
[5] = target: proteins of labeled HeLa cell lysates pretreated with Ser phosphatases (CIP, PP1 and PP2A); test: pulldown from labeled HeLa lysates pretreated with Ser phosphatases
[6] = target: pT231 tau peptide (SEQ ID NO: 20); test: ELISA on peptide
[7] = target: Amyloid Precursor Protein Peptide … (pT-668); test: ELISA on peptide
[8] = target: pT231 tau peptide (SEQ ID NO: 20); test: ELISA on peptide; remark: listed apart in the source
[9] = target: Pintide analogue WFYpSPFLE; test: fluorescence anisotropy, fluorescein labeled Pintide; high affinity site
[10] = target: Pintide analogue WFYpSPFLE; test: fluorescence anisotropy (Table 2 prints 1.0 for the WW-domain)
[11] = target: tau peptide … (pT-231), SEQ ID NO: 29; test: ELISA on peptide

Chain of Nedd4 WW-domain-1 (P46935 249-282): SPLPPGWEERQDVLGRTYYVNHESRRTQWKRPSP

Kd [1]: 13000 nM
Kd [2]: 1200 nM
Substance: GST-Pin1 (from UniProt Q13526 1-163) (enzyme)

Kd [1]: 13500 nM
Kd [2]: 2000 nM
Substance: GST-Pin1^R14A (from UniProt Q13526 1-163) (enzyme)

Kd [1]: 10500 nM
Kd [2]: 1200 nM
Substance: GST-Pin1^S16A (from UniProt Q13526 1-163) (enzyme)

Kd [1]: 10500 nM
Substance: GST-Pin1^S16E (from UniProt Q13526 1-163) (enzyme)

Kd [1]: 12000 nM
Kd [2]: 1000 nM
Substance: GST-Pin1^S18E (from UniProt Q13526 1-163) (enzyme)

Kd [3]: 2200 nM
Kd [4]: 1000 nM
Substance: GST-WW-domain of Pin1 (from UniProt Q13526 1-54)

fold reduction of binding against untreated lysates [5]: 10 fold
Kd [3]: 20000 nM
Kd [4]: 10000 nM
Substance: Nedd4 WW-domain-2 (from UniProt P46935 405-438)

Kd [1]: 15000 nM
Substance: Pin1 PPIase domain (amino acids 47-163) (from UniProt Q13526 47-163) (enzyme)

Kd [2]: 1000 nM
Kd [10]: 1200 nM
Substance: Pin1 WW-domain (amino acids 1-54) (from UniProt Q13526 1-54)

Kd [9]: 5000 nM
Substance: Pin1^Y23F (from UniProt Q13526 1-163) (enzyme)

The next lines start with the substance.

Substance: Cdc25C, in vitro translated (35S-Met), phosphorylated by Xenopus mitotic extracts
dephosphorylation of the bound Cdc25C by calf intestine phosphatase (CIP) (GST-WW-domain of Pin1): When mitotically phosphorylated Cdc25C was precipitated using GST beads containing Pin1 or its WW-domain, CIP failed to dephosphorylate Cdc25C.

Substance: GST-Pin1^W34A (from UniProt Q13526 1-163) (enzyme)
Kd [1]: 14000 nM

Substance: GST-Pin1^Y23A (from UniProt P08515 1-218; Q13526 1-163) (enzyme)
Kd [1]: 13500 nM

Substance: Nedd4 WW-domain-1 (from UniProt P46935 249-282)
fold reduction of binding against untreated lysates [5]: 10 fold

Substance: Pin1 (from UniProt Q13526 1-163) (enzyme)
Kd [6]: 25 nM
Binding (OD@405 nm) [7]: 1.81 OD@405 nm
Binding (OD@405 nm) [8]: 1.46 OD@405 nm
Kd [8]: 40 nM
Kd [1]: 11000 nM
Kd [2]: 1200 nM
Kd [9]: 1200 nM

Substance: Pin1^R14A (from UniProt Q13526 1-163) (enzyme)
Binding (OD@405 nm) [11]: 1.3 OD@405 nm
Kd [9]: 2000 nM

Substance: Pin1^S16A (from UniProt Q13526 1-163) (enzyme)
Kd [9]: 1200 nM
